assay: soluble on expression in E. coli; label from the status in PepcDB or PDB records

**Q.** For “MANTGSLVLLRHGESDWNALNLFTGWVDVGLTDKGQAEAVRSGELIAEHDLLPDVLYTSLLRRAITTAHLALDSADRLWIPVRRSWRLNERHYGALQGLDKAETKARYGEEQFMAWRRSYDTPPPPIERGSQFSQDADPRYADIGGGPLTECLADVVARFLPYFTDVIVGDLRVGKTVLIVAHGNSLRALVKHLDQMSDDEIVGLNIPTGIPLRYDLDSAMRPLVRGGTYLDPEAAAAGAAAVAGQGRGGVPRGAAALEHHHHHH”, which “soluble on expression in E. coli” value is on record?
**A.** soluble

**Q.** For “MANVLVINFPGEGHINPTLAIISELIRRGETVVSYCIEDYRKKIEATGAEFREFENFLSQINIMERVNEGGSPLTMLSHMIEASERIVTQIVEETKGEQYDYLLYDNHFPVGRIIANVLQLPSISSCTTFAFNQYITFNDEQESRQVDETNPLYQSCLAGMEKWNRQYGMKCNSMYDIMNHPGDITIVYTSKEYQPRSDVFDESYKFVGPSIATRKEVGSFPMEDLKGEKLIFISMGTVFNEQPELYEKCFEAFKGVEATVILAVGKKINISQFENIPNNFKLYNYVPQLEVLQHADVFVTHGGMNSSSEALYYGVPLVVIPVTGDQPLVAKRVNEVGAGIRLNRKELTSELLRETVKEVMYDVTFKENSRKVGESLRNAGGYKRAVDEIFKMKMNSYLKLK”, which “soluble on expression in E. coli” value is on record?
**A.** not soluble

**Q.** With “MANYYEVLGVQASASPEDIKKAYRKLALRWHPDKNPDNKEEAEKKFKLVSEAYEVLSDSKKRSLYDRAGCDSWRAGGGA” as the sequence, how does the “soluble on expression in E. coli” value read?
**A.** soluble

**Q.** With “MAPDRSGGPAAAELIAGLGLERHPEGGWYRETYRAAGTIPGTLLPGQVGGERSFSTAIYFLLERGDISALHRIRSDELWHFHAGAPLIVHVITPAGGSYALTLGSDPASGETFQAVVPAGCWFGAETTGDYSLVGCTVAPGFDFADFEMGSRADLLGRFPTHAGIIRRLTRDGDLEHHHHHH” as the sequence, how does the “soluble on expression in E. coli” value read?
**A.** not soluble

**Q.** Which “soluble on expression in E. coli” value does the source give for “MAPINGIRDDDAASIRLRDSFRDEVSKRMGELLLKGQTMLDEYCPTCSGILMEDRALVRRCVTCELFREKSSVIVGEVSLQDEDLNEAVNNKIPTPAAPVNKPAKKAVLQKSAPAKKKEAVPAAAEPSSSDTIESATTAVLQKLEWATDRLNSTEEVARVMDFLSVIQKSAETLKALRI” here?
**A.** not soluble

**Q.** With “MAPKCWSNLPSDVKREVLEHGDCQQWFNVRLCSRADMNLVDSLKLRIPFLKIQISNTTFSIIIVESPSAILRIDLHQKSGGNAEFSVEIFKNSDLELGNLIKTIENTTLDAEISNLLEKSIFHRKIDIATCQIQADGLQAENPVLAMIHAKFTENAPKKLIFSGKSMEENRFLAKFFENLNIDFVFRSWRKDLSREWGEGMNHLRIKIFEVSKWTTLLGDFEHFTAYDEIEPVMYMARILSRPMKRSHWFPGFHVPVAERLFRQIFRQEMFEKFENHSIRKSPINLKLWIFVKFTKCGISIFVGDPKDFNERDGTCDLEWMCPNCAPKTMENWFFRETIGKLHF” as the sequence, how does the “soluble on expression in E. coli” value read?
**A.** not soluble

**Q.** For “MAPRDIRPGAEYGDIIEEAIVTCKVFLIVFSETSQISRWVRSELNIGFSSNKPIIPFRIDPTDLKGSMKLMLNDKHWLNAYPNPEEKFSELAAVILDLLQHPAVDTISPPGFQPASNVASADGSNAGAQGLFGKLLNQLFVKRRVKVTSDHAAEIFLNGERKGKLDAYETGNYSVSEDFYQLEVYSCEYGKKVKCEYSGSFSNSSTVIISVDMATAEKQYLMKAKNITSGQINDLGIIFLDEGKFEDAQECFLKAASMGEAAAAYNLGMMYHFGKGVEIDYDVAREYYEEAVKSDYPLALNNLGSIYYNGHGVRKDIAKSFPYFCRAAERGVESAQFTVATMLFYGQGVAVDKAKAKKWFQKAAAQGCKDSQNYLNSWVDD”, which “soluble on expression in E. coli” value is on record?
**A.** not soluble

**Q.** Which “soluble on expression in E. coli” value does the source give for “MAPVKLYMVEVIDKKEIAANERRSRENDVTGPEITHYYQVTFRLTTDDRKDLVLNIDKSSYQNIEPEMKGRLFMQGSRFVQFETDVPIDEQKLEHHHHHH” here?
**A.** soluble

**Q.** With “MAPVLSKDVADIESILALNPRTQSHAALHSTLAKKLDKKHWKRNPDKNCFHCEKLENNFDDIKHTTLGERGALREAMRCLKCADAPCQKSCPTHLDIKSFITSISNKNYYGAAKMIFSDNPLGLTCGMVCPTSDLCVGGCNLYATEEGSINIGGLQQFASEVFKAMNIPQIRNPCLPSQEKMPEAYSAKIALLGAGPASISCASFLARLGYSDITIFEKQEYVGGLSTSEIPQFRLPYDVVNFEIELMKDLGVKIICGKSLSENEITLNTLKEEGYKAAFIGIGLPEPKTDDIFQGLTQDQGFYTSKDFLPLVAKSSKAGMCACHSPLPSIRGAVIVLGAGDTAFDCATSALRCGARRVFLVFRKGFVNIRAVPEEVELAKEEKCEFLPFLSPRKVIVKGGRIVAVQFVRTEQDETGKWNEDEDQIVHLKADVVISAFGSVLRDPKVKEALSPIKFNRWDLPEVDPETMQTSEPWVFAGGDIVGMANTTVESVNDGKQASWYIHKYIQAQYGASVSAKPELPLFYTPVDLVDISVEMAGLKFINPFGLASAAPTTSSSMIRRAFEAGWGFALTKTFSLDKDIVTNVSPRIVRGTTSGPMYGPGQSSFLNIELISEKTAAYWCQSVTELKADFPDNIVIASIMCSYNKNDWMELSRKAEASGADALELNLSAPHGMGERGMGLACGQDPELVRNICRWVRQAVQIPFFAKLTPNVTDIVSIARAAKEGGADGVTATNTVSGLMGLKADGTPWPAVGAGKRTTYGGVSGTAIRPIALRAVTTIARALPGFPILATGGIDSAESGLQFLHSGASVLQVCSAVQNQDFTVIQDYCTGLKALLYLKSIEELQGWDGQSPGTESHQKGKPVPRIAELMGKKLPNFGPYLEQRKKIIAEEKMRLKEQNAAFPPLERKPFIPKKPIPAIKDVIGKALQYLGTFGELSNIEQVVAVIDEEMCINCGKCYMTCNDSGYQAIQFDPETHLPTVTDTCTGCTLCLSVCPIIDCIRMVSRTTPYEPKRGLPLAVNPVC” as the sequence, how does the “soluble on expression in E. coli” value read?
**A.** soluble

**Q.** For “MAQFTEEEKTIRRIEKRFNKGMVQYGLIEEGDKVLVGLSGGKDSLALVELLGKRSHIFKPRFSVVAVHVVMKNIPYQSDWDYLREHAEKNGVPLVVYETSFDPSTDTRKSPCFLCSWNRRKALFTVAKEQGCNKIALGHHMDDILETLLMNITYQGAFSTMPPRLVMNKFDMTIIRPMCLVHEADLLELAQIRGYRKQVKNCPYESQSSRSDMKGILRQLEKMNPEARYSLWGSMTNVQEELLPKEVEF”, which “soluble on expression in E. coli” value is on record?
**A.** not soluble

**Q.** With “MAQIIDFFAAFRGYYSDGSTFIQIISLGSHHNLSVHISERMLSESGIKLGNFLSATVSLAEHPKNFQLKRLNLQVTVEGNFAKVHGIEANLEKNADGILVFSTNNFASAKATNQGLEIGRYKITVQAVKPSEKDLFNGMKFFGTVEEKISGLTRRVASNNTNQVIGEGFRNMSISGKRTVS” as the sequence, how does the “soluble on expression in E. coli” value read?
**A.** not soluble

**Q.** With “MAQKKGRESDSVAEGLRPAEEGDVLELDECWTYVRERANKRWLWVALCRRTRQVVAFVIGDRSARTCARLWSRIPEEYRQGRSFSDFWKSYRPVFAGDPSHRQVGKSSGEMAHVERFFGRLRQKLARYVRRTRAASESERMLHLTTKLFVEWYNEAIT” as the sequence, how does the “soluble on expression in E. coli” value read?
**A.** not soluble

**Q.** Which “soluble on expression in E. coli” value does the source give for “MAQREWVEKDFYQELGVSSDASPEEIKRAYRKLARDLHPDANPGNPAAGERFKAVSEAHNVLSDPAKRKEYDETRRLFAGGGFGGRRFDSGFGGGFGGFGVGGDGAEFNLNDLFDAASRTGGTTIGDLFGGLFGRGGSARPSRPRRGNDLETETELDFVEAAKGVAMPLRLTSPAPCTNCHGSGARPGTSPKVCPTCNGSGVINRNQGAFGFSEPCTDCRGSGSIIEHPCEECKGTGVTTRTRTINVRIPPGVEDGQRIRLAGQGEAGLRGAPSGDLYVTVHVRPDKIFGRDGDDLTVTVPVSFTELALGSTLSVPTLDGTVGVRVPKGTADGRILRVRGRGVPKRSGGSGDLLVTVKVAVPPNLAGAAQEALEAYAAAERSSGFNPRAGWAGNR” here?
**A.** soluble

**Q.** Which “soluble on expression in E. coli” value does the source give for “MAQSKLYPVVMAGGSGSRLWPLSRVLYPKQFLCLKGDLTMLQTTICRLNGVECESPVVICNEQHRFIVAEQLRQLNKLTENIILEPAGRNTAPAIALAALAAKRHSPENDPLMLVLAADHVIADEDAFRAAVRNAMPYAEAGKLVTFGIVPDLPETGYGYIRRGEVSAGEQDTVAFEVAQFVEKPNLETAQAYVASGEYYWNSGMFLFRAGRYLEELKKYRPDILDACEKAMSAVDPDLDFIRVDEEAFLACPEESVDYAVMERTADAVVVPMDAGWSDVGSWSSLWEISAHTAEGNVCHGDVINHKTENSYVYAESGLVTTVGVKDLVVVQTKDAVLIADRNAVQDVKKVVEQIKADGRHEHRVHREVYRPWGKYDSIDAGDRYQVKRITVKPGEGLSVQMHHHRAEHWVVVAGTAKVTIDGDIKLLGENESIYIPLGATHCLENPGKIPLDLIEVRSGSYLEEDDVVRFADRYGRV” here?
**A.** soluble

**Q.** With “MAQVRQEIAREQEKAARLARNLAKYLSPQVWEMIFSGKKSVRLETQRKKLTVFFSDIRGFTELSEELEAEALTDLLNNYLNEMSKIALKYGGTIDKFVGDCVMVFFGDPSTQGAKKDAVAAVSMGIAMRKHMKVLRQQWRAQGITKPLEIRMGINTGYCTVGNFGADTRMDYTIIGREVNLASRLESASEAGEILISHETYSLIKDVIMCRDKGQIAVKGFSRPVQIYQVVDSRRDLGAAPSYVEHELPGFSMYLDTNNIQNYDKERVIQALQQAAER” as the sequence, how does the “soluble on expression in E. coli” value read?
**A.** not soluble

**Q.** For “MARARKGALVQCDPSIKALILQIDAKMSDIVLEELDDTHLLVNPSKVEFVKHELNRLLSKNIYNPMDEEENQ”, which “soluble on expression in E. coli” value is on record?
**A.** soluble

**Q.** With “MARATTKQDLIMASNGQFEKLWVLIDGMSDDLQNATFADQMATAGKEAHWGRDKNLRDVLVHLYEWHQLLLNWINSNSKGERKPFLPEPYNWKTYSVMNVEFWKKHQQTPLAEAKDKLKESHRQVMALIETFSNDELFAKGVFDWTDTSTLGAYCVSATSSHYDWAMKKIKLHIKTGK” as the sequence, how does the “soluble on expression in E. coli” value read?
**A.** not soluble

**Q.** Which “soluble on expression in E. coli” value does the source give for “MARDALTDALTVGELRRRVHALVLGKRQRVYSGAMFLVEVVHHPELSAMLGLEDNKLLLAMIAQRLQMQSDYFQVARHSSDSFMVWAPDLDPRSARDVAPEVLDALSQPYELRGQPLIVGFRLSGALYAQHGACFDELERSLHIAMLHLDESAGAAWNMFEPSMLEHQRHYQGLEHHHHHH” here?
**A.** not soluble

**Q.** For “MARKEAKMLYIFDLGNVIVDIDFNRVLGAWSDLTRIPLASLKKSFHMGEAFHQHERGEISDEAFAEALCHEMALPLSYEQFSHGWQAVFVALRPEVIAIMHKLREQGHRVVVLSNTNRLHTTFWPEEYPEIRDAADHIYLSQDLGMRKPEARIYQHVLQAEGFSPSDTVFFDDNADNIEGANQLGITSILVKDKTTIPDYFAKVLC”, which “soluble on expression in E. coli” value is on record?
**A.** soluble

**Q.** For “MARKNAVKDNLEQIQHQSYSELQELLSEANSMLADSAAFAGDKADSARARIGALLEKANDALGKGGSAVAERSRHAVDATESYIGANPWQTVAITTAVGLLAGFLLGRRS”, which “soluble on expression in E. coli” value is on record?
**A.** not soluble

**Q.** Which “soluble on expression in E. coli” value does the source give for “MARLARLGEPFALATVVASSGSSPRKAGAKMLIRGDGSALGTVGGGHVEQDTLAAARASLAEGAPRTLEFVLTEEHGYACGGSMSVFIEPQGRRPLLVMFGAGHVGRAVTALAHGCGFRVIVVDERPEYAVPALLPGADEIVCVPVGAAFARLTLDRESFAVIATPGHVHDFDAVRGCLATEVGFIGLLGSRRKREALMKTLTEEGYEAGRQARVVTPVGLDIGAQTPEEIAVSIVGQLVKLRRQA” here?
**A.** not soluble

**Q.** With “MARLNVKPTRMELSNLKNRLKTATRGHKLLKDKRDELMRRFVDLIRENNELRQTLEKELAANMKEFVLAKASENSLMVEELFAVPVHEVTLWIDIENIMSVNVPKFHVQSNTAREQEQGEFAYSYLSSNSEMDNTIQKTKELLEKLLRLAEVEKTCQLMADDIEKTRRRVNGLEYSIIPQLEETIHYIELKLEEAERASLVRIMKITSLEHHHHHH” as the sequence, how does the “soluble on expression in E. coli” value read?
**A.** not soluble

**Q.** Which “soluble on expression in E. coli” value does the source give for “MARLTVHTLETAPEAAKARVEAVLQNNGFIPNLIGVLSNAPEALAFYQEVGKLNAANSLTAGEVEVIQIIAARTNQCGFCVAGHTKLATLKKLLSEQSVKAARALAAGEFDDAKLGALAAFTQAVMAKKGAVSDEELKAFFDAGYNQQQAVEVVMGVALATLCNYVNNLGQTEINP” here?
**A.** not soluble
